This note sets out measurements from patent US20220378931A1 (Eli Lilly, published 2022).

Assay [1] has as its target T1, human insulin receptor isoform A with C-terminal C9 tag (human, UniProt P06213 28-1382).
T1 construct: membranes of stably transfected HEK293 cells; also called hIR-A; human IR-A
The assay is described as follows: 125I-insulin competition SPA, hIR-A membranes, 0.1% BSA. On the procedure:
(§1) The assays are performed with a SPA method using polyvinyltoluene (PVT) wheat germ agglutinin-coupled SPA beads (Perkin Elmer). Assay buffer contains 50 mM Tris-HCl, pH 7.5, 150 mM NaCl and either A) 0.1% w/v fatty-acid free BSA; B) 0.1% w/v fatty-acid free human serum albumin (HSA); C) 0.1% w/v rat serum albumin (RSA); or D) 0.001% Nonidet P-40 Substitute (NP-40, Roche Diagnostics). Ten-point concentration response curves using three-fold serial dilutions of test samples or controls are prepared in Assay Buffer using a Freedom/Evo robot (Tecan).
(§2) Percent specific inhibition (y-axis) is plotted versus the log concentration of compound (x-axis). […] Reported Ki values are shown as the geometric mean with the standard error (Delta Method Standard Error) and the number of independent replicate determinations used to calculate the geometric mean indicated by n.

The target in another assay is T2, rabbit serum albumin (rabbit, UniProt P49065 25-608).
T2 construct: bought protein, amine-coupled to a CM5 chip; also called Rabbit SA
The experiment in a line: SPR (Biacore 8K), albumin immobilised, 25 C. As to the method:
(§3) Immobilization of serum albumin to a Series S Sensor Chip CM5 surface is performed according to the manufacturer's instructions (Amine Coupling Kit BR-1000-50). Briefly, carboxyl groups on the sensor chip surfaces (flow cell 1 and 2) are activated by injecting 70 μL of a mixture containing 75 mg/ml EDC and 11.5 mg/ml NHS at 10 μL/min. Human, cynomolgus monkey, mouse, rat, pig, dog, cow and rabbit serum albumin are diluted in 10 mM NaOAc pH 4.0 (BR-1003-49) at 1, 1, 3, 1, 1, 1, 1 and 1 μg/mL and then injected over the activated chip surfaces (flow cell 2, […]) at 10 μL/min for 90 sec (human, mouse, rat, pig and cow serum albumin are obtained from Sigma Aldrich (St. Louis, Mo.); cynomolgus monkey serum albumin is obtained from Holzel Diagnostika (Cologne, Germany); dog serum albumin is obtained from Molecular Innovations (Novi, Mich.); and rabbit serum albumin is obtained from Fitzgerald Industries International (Acton, Mass.)). […] Excess reactive groups on the surfaces (flow cell 1 and 2) are deactivated by injecting 70 μL of 1 M ETA HCl—NaOH pH 8.5 at 10 μL/min.
(§4) 150 μL of sample is individually injecting sequentially across the immobilized serum albumins surface and then dissociates for 600 sec at 50 μL/min flow rate at 25° C. The surface is regenerated by injecting 10 mM glycine-HCl pH 1.5 (BR-1003-54) at 50 μL/min for 100 sec. The resulting sensorgrams are analyzed using Biacore 8K Insight Evaluation Software (version 2.0.15.12933) 1:1 binding kinetics or steady-state affinity model fitting to calculate the binding kinetic parameter association rate (ka), dissociation rate (kd), and equilibrium dissociation constant (KD)

A further assay deals with T3, cow serum albumin (cow, UniProt P02769 25-607).
T3 construct: bought protein, amine-coupled to a CM5 chip; also called Cow SA; Bovine SA
The experiment in a line: SPR (Biacore 8K), albumin immobilised, 25 C, steady-state affinity. On the procedure: as §3, §4

The target of a further assay is T4, human serum albumin (human, UniProt P02768 25-609).
T4 construct: bought protein, amine-coupled to a CM5 chip; also called Human SA; HSA
The assay is described as follows: SPR (Biacore 8K), albumin immobilised, 25 C, 1:1 kinetics. As to the method: as §3, §4

The target of a further assay is T5, mouse serum albumin (mouse, UniProt P07724 25-608).
T5 construct: bought protein, amine-coupled to a CM5 chip; also called Mouse SA
The assay is described as above. On the procedure:
as §3, §4

Assay [2] deals with T6, cynomolgus monkey serum albumin (cynomolgus monkey, UniProt A2V9Z4 25-608).
T6 construct: bought protein, amine-coupled to a CM5 chip; also called Cyno SA
The assay is described as above. As to the method: as §3, §4

A further assay deals with T7, rat serum albumin (rat, UniProt P02770 25-608).
T7 construct: bought protein, amine-coupled to a CM5 chip; also called Rat SA; RSA
The description is as above. On the procedure: as §3, §4

The target in the next assay is T8, pig serum albumin (pig, UniProt P08835 25-607).
T8 construct: bought protein, amine-coupled to a CM5 chip; also called Pig SA
The assay is described as above. On the procedure: as §3, §4

The target of the next assay is T9, dog serum albumin (dog, UniProt P49822 25-608).
T9 construct: bought protein, amine-coupled to a CM5 chip; also called Dog SA
The description is as above. On the procedure:
as §3, §4

For assay [3], the target named is T1, human insulin receptor isoform A with …. The experiment in a line: 125I-insulin competition SPA, hIR-A membranes, 0.001% NP-40. On the procedure: as §1, §2

B1: INS Analog 23 (other)
chain: FVSQHLCGSHLVEALHLVCGERGFHYTPKTGGGGGGGIVEQCCHSICSLEQLENYCGGGGGQGGGGQGGGGQGGGGQGGGGQEVQLLESGGGLVQPGGSLRLSCAASGRYIDETAVAWFRQAPGKEREFVAGIGGGVDITYYADSVKGRFTISRDNSKNTLYLQMNSLRPEDTAVYYCAARPGRPLITSKVADLYPYWGQGTLVTVSSPP
notes: single-chain insulin B-L2-A-L1-VHH fusion; also called Ex. 23
For B1, the values for the Ki in assay [1] and in [3] were 55.1 nM and 18.9 nM, respectively. Besides, in the assay with rabbit serum albumin, the binding result was “no binding (tested: up to 1000 nM)”. Besides, the Kd with cow serum albumin amounted to 590 nM; with human serum albumin it was 0.73 nM; with mouse serum albumin, 76 nM; in assay [2], 6.8 nM; with rat serum albumin, 53 nM; with pig serum albumin it was 130 nM. For the same molecule, the Kd with dog serum albumin came to 23 nM. Moreover, the koff came to 9e-05 s⁻¹ in the assay with human serum albumin; 0.0093 s⁻¹ with mouse serum albumin; 0.00084 s⁻¹ in assay [2]; 0.0065 s⁻¹ with rat serum albumin; 0.012 s⁻¹ in the assay with pig serum albumin; 0.0033 s⁻¹ in the assay with dog serum albumin. In addition, the kon with human serum albumin is 120000 M⁻¹ s⁻¹; in the assay with mouse serum albumin, 120000 M⁻¹ s⁻¹; in assay [2], 120000 M⁻¹ s⁻¹; with rat serum albumin, 120000 M⁻¹ s⁻¹; in the assay with pig serum albumin it was 95000 M⁻¹ s⁻¹; with dog serum albumin it was 140000 M⁻¹ s⁻¹.

B2: INS Analog 27 (other)
chain: FVSQHLCGSHLVEALRLVCGERGFFYTPKTGGGGGGGIVEQCCHSICSLYQLENYCGGGGGQGGGGQGGGGQGGGGQGGGGQEVQLLESGGGLVQPGGSLRLSCAASGRYIDETAVAWFRQAPGKEREFVAGIGGGVDITYYADSVKGRFTISRDNSKNTLYLQMNSLRPEDTAVYYCAARPGRPLITSKVADLYPYWGQGTLVTVSSPP
notes: single-chain insulin B-L2-A-L1-VHH fusion; also called Ex. 27
Consider B2, for which the inhibitory constant (Ki) was 103 nM in assay [1] and 50.5 nM in assay [3]. Besides, in the assay with rabbit serum albumin, the binding result is “no binding (tested: up to 1000 nM)”. Moreover, the Kd with cow serum albumin worked out at 390 nM; in the assay with human serum albumin it was 0.75 nM; with mouse serum albumin, 45 nM; in assay [2] it was 4.7 nM; with rat serum albumin, 32 nM; with pig serum albumin, 90 nM. The affinity with dog serum albumin, expressed as Kd, was 17 nM. Moreover, the koff with human serum albumin was determined as 0.00013 s⁻¹; with mouse serum albumin, 0.0079 s⁻¹; in [2], 0.00078 s⁻¹; in the assay with rat serum albumin, 0.0061 s⁻¹; with pig serum albumin, 0.01 s⁻¹; in the assay with dog serum albumin, 0.003 s⁻¹. The kon amounted to 170000 M⁻¹ s⁻¹ in the assay with human serum albumin; 170000 M⁻¹ s⁻¹ in the assay with mouse serum albumin; 170000 M⁻¹ s⁻¹ in assay [2]; 190000 M⁻¹ s⁻¹ with rat serum albumin; 120000 M⁻¹ s⁻¹ with pig serum albumin; 180000 M⁻¹ s⁻¹ in the assay with dog serum albumin.

B3: INS Analog 24 (other)
chain: FVSQHLCGSHLVEALHLVCGERGFHYTPKTGGGGGGGIVEQCCHSICSLEQLENYCGPGPQPGPQPGPQPGPQPGPQPGPQPGPQPGPQEVQLLESGGGLVQPGGSLRLSCAASGRYIDETAVAWFRQAPGKEREFVAGIGGGVDITYYADSVKGRFTISRDNSKNTLYLQMNSLRPEDTAVYYCAARPGRPLITSKVADLYPYWGQGTLVTVSSPP
notes: single-chain insulin B-L2-A-L1-VHH fusion; also called Ex. 24
As to B3, the Ki in [1] was found to be 56.8 nM; in assay [3], 21.8 nM. Also, the binding result with rabbit serum albumin is given as “no binding (tested: up to 1000 nM)”. Also, the equilibrium dissociation constant (Kd) with cow serum albumin was 430 nM; with human serum albumin, 0.91 nM; with mouse serum albumin it was 49 nM; in [2], 5.5 nM; with rat serum albumin, 40 nM; with pig serum albumin, 100 nM. Further, the Kd in the assay with dog serum albumin was 16 nM. Also, the koff came to 0.00012 s⁻¹ with human serum albumin; 0.0073 s⁻¹ with mouse serum albumin; 0.00075 s⁻¹ in [2]; 0.0057 s⁻¹ in the assay with rat serum albumin; 0.011 s⁻¹ in the assay with pig serum albumin; 0.0024 s⁻¹ with dog serum albumin. In addition, the kon with human serum albumin is 140000 M⁻¹ s⁻¹; with mouse serum albumin, 150000 M⁻¹ s⁻¹; in assay [2], 130000 M⁻¹ s⁻¹; with rat serum albumin, 140000 M⁻¹ s⁻¹; with pig serum albumin, 100000 M⁻¹ s⁻¹; in the assay with dog serum albumin, 150000 M⁻¹ s⁻¹.

B4: INS Analog 28 (other)
chain: FVSQHLCGSHLVEALRLVCGERGFFYTPKTGGGGGGGIVEQCCHSICSLYQLENYCGPGPQPGPQPGPQPGPQPGPQPGPQPGPQPGPQEVQLLESGGGLVQPGGSLRLSCAASGRYIDETAVAWFRQAPGKEREFVAGIGGGVDITYYADSVKGRFTISRDNSKNTLYLQMNSLRPEDTAVYYCAARPGRPLITSKVADLYPYWGQGTLVTVSSPP
notes: single-chain insulin B-L2-A-L1-VHH fusion; also called Ex. 28
With B4, the Ki in [1] worked out at 71 nM; in assay [3] it was 32.7 nM. Also, the binding result with rabbit serum albumin is “no binding (tested: up to 1000 nM)”. Moreover, the Kd with cow serum albumin turned out to be 400 nM; with human serum albumin it was 0.73 nM; with mouse serum albumin, 37 nM; in assay [2] it was 4.1 nM; with rat serum albumin it was 26 nM; with pig serum albumin, 75 nM. In the assay with dog serum albumin, this molecule gave a dissociation constant Kd of 12 nM. Also, the koff was determined as 0.00012 s⁻¹ with human serum albumin; 0.006 s⁻¹ in the assay with mouse serum albumin; 0.00067 s⁻¹ in assay [2]; 0.0048 s⁻¹ with rat serum albumin; 0.0084 s⁻¹ with pig serum albumin; 0.0021 s⁻¹ with dog serum albumin. Also, the kon in the assay with human serum albumin turned out to be 160000 M⁻¹ s⁻¹; in the assay with mouse serum albumin it was 160000 M⁻¹ s⁻¹; in assay [2], 170000 M⁻¹ s⁻¹; with rat serum albumin it was 180000 M⁻¹ s⁻¹; in the assay with pig serum albumin it was 110000 M⁻¹ s⁻¹; with dog serum albumin, 170000 M⁻¹ s⁻¹.
